Experimental findings from publication PMC1626108 are described below.

One test has as its target Hexokinase type I (HKI) (UniProt P17710).
Test [1] concerns the target T1, Recombinant Cox11, purified (mouse) (UniProt Q6P8I6).
T1 sequence (Q6P8I6 whole entry, looked up): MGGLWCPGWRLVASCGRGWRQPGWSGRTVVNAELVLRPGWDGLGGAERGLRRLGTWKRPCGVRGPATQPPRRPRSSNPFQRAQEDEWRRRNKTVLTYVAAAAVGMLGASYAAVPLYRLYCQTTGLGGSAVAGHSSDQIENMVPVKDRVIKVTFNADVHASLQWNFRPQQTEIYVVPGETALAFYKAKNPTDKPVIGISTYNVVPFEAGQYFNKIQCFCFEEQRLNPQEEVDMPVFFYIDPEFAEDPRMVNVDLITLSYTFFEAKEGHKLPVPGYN

Chain of UniProt P17710 (P17710 other isoform, or with tags, fused parts or gaps): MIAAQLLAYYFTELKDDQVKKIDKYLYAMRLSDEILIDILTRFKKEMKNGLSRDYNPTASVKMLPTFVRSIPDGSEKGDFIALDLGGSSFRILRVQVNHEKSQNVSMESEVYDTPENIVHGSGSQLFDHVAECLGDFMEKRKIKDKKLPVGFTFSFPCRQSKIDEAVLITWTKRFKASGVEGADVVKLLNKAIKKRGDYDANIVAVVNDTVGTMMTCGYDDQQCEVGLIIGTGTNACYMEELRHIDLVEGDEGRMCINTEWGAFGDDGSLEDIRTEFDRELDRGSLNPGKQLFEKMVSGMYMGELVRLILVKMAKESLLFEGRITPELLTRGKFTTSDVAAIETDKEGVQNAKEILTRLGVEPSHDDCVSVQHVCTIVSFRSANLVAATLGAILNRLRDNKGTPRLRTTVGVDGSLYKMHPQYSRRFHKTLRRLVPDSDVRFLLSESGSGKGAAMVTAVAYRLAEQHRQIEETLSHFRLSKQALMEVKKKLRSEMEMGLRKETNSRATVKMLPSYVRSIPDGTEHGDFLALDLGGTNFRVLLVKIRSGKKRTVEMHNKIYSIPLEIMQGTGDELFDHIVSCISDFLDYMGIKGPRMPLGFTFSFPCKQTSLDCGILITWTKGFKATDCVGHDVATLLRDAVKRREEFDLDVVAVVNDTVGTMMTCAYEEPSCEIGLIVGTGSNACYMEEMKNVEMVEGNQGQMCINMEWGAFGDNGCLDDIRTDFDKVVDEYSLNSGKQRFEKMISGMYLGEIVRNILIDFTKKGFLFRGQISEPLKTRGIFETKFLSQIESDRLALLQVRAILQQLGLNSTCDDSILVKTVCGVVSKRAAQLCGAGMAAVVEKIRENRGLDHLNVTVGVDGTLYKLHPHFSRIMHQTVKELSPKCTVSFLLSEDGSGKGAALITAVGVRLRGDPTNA

In turn, “Recombinant Cox11, purified (from UniProt Q6P8I6 75-275) (natural protein)” displayed an HKI enzymatic activity (initial rates versus glucose, 0.24 ug HKI) with 0.25, 7.5 and 15 nM Cox11; concentration of Cox11 at which no activity was recorded with Hexokinase type I (HKI) of 15 nM.

In the case of “GST-LD, leucine-rich domain of RanBP2 fused to glutathione S-transferase (from UniProt P49792 62-711) (domain or fragment)”, the reversal by increasing LD of the inhibition of HKI activity by 7.5 nM Cox11 at saturating glucose; half-maximal effect in test [1] was 0.05 nM.
